Source: publication PMC3467076

Biological target: T1, SNI1 (Arabidopsis thaliana, UniProt Q9SWA6 1-432)
T1 sequence: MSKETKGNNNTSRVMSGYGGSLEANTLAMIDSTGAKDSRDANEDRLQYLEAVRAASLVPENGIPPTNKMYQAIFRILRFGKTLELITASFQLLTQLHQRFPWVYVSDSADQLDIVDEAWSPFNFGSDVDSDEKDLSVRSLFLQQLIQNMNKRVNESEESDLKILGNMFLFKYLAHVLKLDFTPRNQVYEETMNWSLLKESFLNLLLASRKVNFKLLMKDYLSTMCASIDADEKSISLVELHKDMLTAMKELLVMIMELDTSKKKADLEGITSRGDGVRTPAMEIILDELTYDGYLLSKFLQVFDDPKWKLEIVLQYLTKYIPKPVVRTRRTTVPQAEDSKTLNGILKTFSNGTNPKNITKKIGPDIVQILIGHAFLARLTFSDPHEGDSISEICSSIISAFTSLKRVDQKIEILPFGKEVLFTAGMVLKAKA
Assay: EMSA

B1: E0-1-1 (dsDNA)
DNA 1: TAATAATGCTTAGTTATAAATTACT
DNA 2: AGTAATTTATAACTAAGCATTATTA
  binding result: no binding
